Assay results as given in PMC10415184, “A placental model of SARS-CoV-2 infection reveals ACE2-dependent susceptibility and differentiation impairment in syncytiotrophoblasts” (Nature Cell Biology, 2023).

Molecular target: recombinant human ACE2 (Homo sapiens, UniProt Q9BYF1)
Sequence (Q9BYF1 18-805): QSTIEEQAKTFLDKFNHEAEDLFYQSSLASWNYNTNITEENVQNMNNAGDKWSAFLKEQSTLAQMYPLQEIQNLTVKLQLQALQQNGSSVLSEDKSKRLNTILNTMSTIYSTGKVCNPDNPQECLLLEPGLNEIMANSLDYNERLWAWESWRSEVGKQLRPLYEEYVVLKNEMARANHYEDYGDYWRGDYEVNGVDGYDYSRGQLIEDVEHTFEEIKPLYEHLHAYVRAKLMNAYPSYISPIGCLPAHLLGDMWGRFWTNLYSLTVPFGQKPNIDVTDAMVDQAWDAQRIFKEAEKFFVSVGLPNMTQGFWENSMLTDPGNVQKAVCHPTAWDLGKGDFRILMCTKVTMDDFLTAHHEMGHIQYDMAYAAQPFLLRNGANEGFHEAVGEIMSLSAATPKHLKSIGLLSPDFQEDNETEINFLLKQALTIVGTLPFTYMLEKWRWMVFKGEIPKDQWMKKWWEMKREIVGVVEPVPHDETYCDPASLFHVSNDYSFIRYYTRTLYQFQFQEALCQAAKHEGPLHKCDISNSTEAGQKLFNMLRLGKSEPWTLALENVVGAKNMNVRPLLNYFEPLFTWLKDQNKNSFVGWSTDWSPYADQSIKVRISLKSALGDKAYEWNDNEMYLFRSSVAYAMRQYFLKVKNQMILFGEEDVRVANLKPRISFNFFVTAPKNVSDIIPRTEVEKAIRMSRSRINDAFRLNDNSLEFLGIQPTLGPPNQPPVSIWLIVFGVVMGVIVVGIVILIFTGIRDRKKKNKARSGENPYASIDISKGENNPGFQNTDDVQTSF

B1: WCSL IgG1 (sheet row 4) (antibody, V domains shown)
VH: EVQLLESGGGLVQPGGSLRLSCAASGFTFRNYAMSWVRQAPGKGLEWVSAISGSGSGTYYADSVKGRFTISRDNSKNTLYLQMNSLRAEDTAVYYCAKEGARIHWGQGTLVTVSS
VL: not shown
B1: binds.

B2: WCSL IgG1 (sheet row 9) (antibody, V domains shown)
VH: EVQLVESGGGLVQPGGSLRLSCAASGFTFRNYAMSWVRQAPGKGLEWVSAISGSGSGTYYADSVKGRFTISRDNSKNTLYLQMNSLRAEDTAVYYCAKEGARIHWGQGTLVTVSS
VL: DIVMTQSPLSLSVTPGEPASISCRSSQSLLHSNGNNYFDWYLQKPGQAPQLLIYLGSNRASGVPDRFSGSGSGTDFTLKISRVEAEDVGVYYCMQALQTPWTFGQGTKVEIK
B2: binds.

B3: WCSL IgG1 (sheet row 8) (antibody, V domains shown)
VH: QLQLQESGPGLVKPSETLSLTCTVSGGSISSSSYYWGWIRQPPGKGLEWIGSIYYSGSTYYNPSLKSRVTISVDTSKNQFSLKLSSVTAADTAVYYCASSPRNWGSPRFAFDIWGQGTMVTVSS
VL: QSVLTQPPSVSGAPGQRVTISCTGTTSNIGAGYDVHWYQQLPGTAPKLLIFGNTNRPSGVPERFSASRSGTSASLAITGLQTTDEADYYCQSYDNSLSGSRVFGGGTKLTVL
B3: binds.

B4: WCSL IgG1 (sheet row 19) (antibody, V domains shown)
VH: EVQLVESGGGVVQPGRSLRLSCAASGFTFSNYAMSWVRQAPGKGLEWVSGISGSGGSTYYADSVKGRFTISRDNSKNTLYLQMNSLRAEDTAVYYCARDRGYSYAAFQHWGQGTLVTVSS
VL: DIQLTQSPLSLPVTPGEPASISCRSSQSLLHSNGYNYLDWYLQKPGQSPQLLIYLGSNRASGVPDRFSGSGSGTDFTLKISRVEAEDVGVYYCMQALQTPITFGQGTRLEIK
B4: binds.

B5: WCSL IgG1 (sheet row 6) (antibody, V domains shown)
VH: QVQLVESGGGLIQPGGSLRLSCAASGFLVSSKYMSWVRQAPGKGLEWVSSIYSGGDTYYADSVKGRFTISRDNSKNTLSLQMHSLKADDTAVYYCARGATGYSDSWYENWGQGTLVTVSS
VL: DIVMTQSPLSLPVTPGEPASISCRPSQSLLHSNGNNYLDWYLQKPGQSPQLLIYLGSNRASGVPDRFSGSGSGTDFTLRISSVEAEDVGVYYCMQALQNPLTFGQGTRLEIK
B5: binds.

B6: WCSL IgG1 (sheet row 14) (antibody, V domains shown)
VH: VESGGGLVQPGGSLRLSCVASGAASGFTFSTESMNWVRQAPGKGLEWVSYIYPSGGGAYYADSVQGRFTVSRDNAKNSVYLQMNSLRVEDTAVYYCVRHQYGDYPSWGQGTPVTVSS
VL: DIVMTQSPLSLSVTPGEPASISCRSSQSLLHSNGFNYFDWYLQKPGQSPQLLIYLGSNRASGVPDRFSGSGSGTDFTLKISRVEAEDVGVYYCMQGLQIPYTFGQGTKLEIK
B6: binds.

B7: WCSL IgG1 (sheet row 12) (antibody, V domains shown)
VH: EVQLLESGGGLVQPGGSLRLSCAASGFTFSSYWMHWVRQAPGKGLEWVSAISGSGGSTYYADSVKGRFTISRDNSKNTLYLQMNSLRAEDTAVYYCARDTPLYYDFWSGDAFDIWGQGTMVTVSS
VL: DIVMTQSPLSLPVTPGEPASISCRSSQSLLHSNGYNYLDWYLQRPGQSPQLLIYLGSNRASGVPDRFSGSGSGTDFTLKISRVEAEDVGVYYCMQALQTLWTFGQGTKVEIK
B7: binds.

B8: WCSL IgG1 (sheet row 13) (antibody, V domains shown)
VH: EVQLVESGGGLVKPGGSLRLSCAASGFTFSSYSMNWVRQAPGKGLEWVSSISSSSSYIYYADSVKGRFTISRDNAKNSLYLQMNSLRAEDTAVYYCARATTVVTPGYFQHWGQGTLVTVSS
VL: EIVLTQSPATLSLSPGQRATLSCRASQSVSSSLAWYQQKPGQAPRLLIYDASDRATDIPARFSGSGSGTDFTLTISSLEPEDFAVYYCQQRTNWPPLTFGGGTKVEIK
B8: binds.

B9: WCSL IgG1 (sheet row 18) (antibody, V domains shown)
VH: EVQLVESGGGVVQPGRSLRLSCAASGFTFSSYGMHWVRQAPGKGLEWVSYIYPSGGGAYYADSVQGRFTVSRDNAKNSVYLQMNSLRVEDTAVYYCTRDFWSAPIPMWGQGTLVTVSS
VL: DIVMTQSPVSLPVTPGEPASISCRSSQSLLHSNGHNYLNWYLQKPGQSPHLLIYLGSNRASGVPDRFSGSGSGTDFTLNISRVEAEDVGVYYCMQALQTPWTFGQGTKVEIK
B9: binds.

B10: WCSL IgG1 (sheet row 16) (antibody, V domains shown)
VH: QITLKESGPTLVKPTQTLTLTCTFSGFSLSTSGVGVGWIRQPPGKALEWLALIYWDDDKRYSPSLKSRLTITRDTSKNLVVLTMINMDPVDTATYYCAHSHSTTWGAFDYWGQGTLVTVSS
VL: DIVMTQSPDSLAVSLGERATINCKSSRSVLYTYNNKDDVAWYQQKPGQPPKLLIYWASTRESGVPDRFSGSGSGTDFTLTISSLQAEDVAVYYCQQYYSAPLTFGGGPRWRSN
B10: binds.

B11: WCSL IgG1 (sheet row 10) (antibody, V domains shown)
VH: EVQLVESGGGLVKPGGSLRLSCAASGFTFSSYSMNWVRQAPGKGLEWVSSISSSSGYIYYSDSLKGRFTISRDNAKNSLYLQMNSLTAEDTAVYYCAREGHIASRGWGWFDSWGQGTLVTVSS
VL: DIVMTQSPVSLAVTPGESASISCRSSQSLLHRNGYNYVDWYLQKPGQSPQLLIYLGSTRASGVPDRFSGSGSGTDFSLQITRVEAEDVGVYYCMQPLEIPLTFGGGTKLEIK
B11: binds.
